Results published in patent publication US20240254223A1 (NOVIMMUNE, published 2024).

T1: high affinity trimeric IL-2R (IL-2Rα, IL-2Rβ and IL-2Rγ) on HEK-Blue IL-2 cells (UniProt P01589 22-272; P14784 27-551; P31785 23-369)
T1 sequence (looked up) 1: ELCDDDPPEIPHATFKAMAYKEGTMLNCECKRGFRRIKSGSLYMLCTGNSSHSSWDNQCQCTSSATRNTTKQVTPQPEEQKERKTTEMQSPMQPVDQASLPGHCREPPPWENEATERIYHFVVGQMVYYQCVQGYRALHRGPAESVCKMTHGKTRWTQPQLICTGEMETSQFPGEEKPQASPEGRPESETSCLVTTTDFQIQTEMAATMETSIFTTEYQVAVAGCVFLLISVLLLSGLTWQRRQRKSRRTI
T1 sequence (looked up) 2: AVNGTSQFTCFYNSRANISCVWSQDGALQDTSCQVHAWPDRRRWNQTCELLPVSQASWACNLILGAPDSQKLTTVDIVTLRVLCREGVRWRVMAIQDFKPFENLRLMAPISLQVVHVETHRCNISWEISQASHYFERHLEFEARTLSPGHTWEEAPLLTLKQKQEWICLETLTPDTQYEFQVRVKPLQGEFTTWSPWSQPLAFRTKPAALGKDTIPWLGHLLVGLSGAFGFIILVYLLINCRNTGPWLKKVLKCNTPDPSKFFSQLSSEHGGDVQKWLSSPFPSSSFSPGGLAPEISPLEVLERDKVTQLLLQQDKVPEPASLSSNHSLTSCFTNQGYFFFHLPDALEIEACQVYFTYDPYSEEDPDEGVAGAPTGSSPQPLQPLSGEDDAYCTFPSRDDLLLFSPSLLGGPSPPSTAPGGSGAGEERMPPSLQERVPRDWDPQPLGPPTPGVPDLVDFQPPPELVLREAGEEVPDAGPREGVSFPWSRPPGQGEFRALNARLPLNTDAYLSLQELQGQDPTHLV
T1 sequence (looked up) 3: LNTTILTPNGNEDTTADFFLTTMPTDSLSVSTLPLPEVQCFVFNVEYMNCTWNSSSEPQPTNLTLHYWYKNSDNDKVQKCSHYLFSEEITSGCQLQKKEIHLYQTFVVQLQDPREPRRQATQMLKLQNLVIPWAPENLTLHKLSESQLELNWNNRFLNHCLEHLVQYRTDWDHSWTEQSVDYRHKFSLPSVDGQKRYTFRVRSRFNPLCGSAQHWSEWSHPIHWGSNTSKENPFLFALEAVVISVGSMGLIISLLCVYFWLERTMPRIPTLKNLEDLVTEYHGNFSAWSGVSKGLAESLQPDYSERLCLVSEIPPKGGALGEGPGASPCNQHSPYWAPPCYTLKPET

T2: low-moderate affinity dimeric IL-2R (IL-2Rβ and IL-2Rγ) on HEK-Blue CD122/CD132 cells (UniProt P14784 27-551; P31785 23-369, limits assumed)
T2 sequence (looked up) 1: T1 sequence (looked up) 2
T2 sequence (looked up) 2: T1 sequence (looked up) 3

B1: Construct No 830 after cleavage by MMP-9 (antibody)
light: DIQMTQSPSSLSASVGDRVTITCRASQSISSYLNWYQQKPGKAPKLLIYAASSLQSGVPSRFSGSGSGTDFTLTISSLQPEDFATYYCQQFHKRSPQKFGQGTKVEIKRTVAAPSVFIFPPSDEQLKSGTASVVCLLNNFYPREAKVQWKVDNALQSGNSQESVTEQDSKDSTYSLSSTLTLSKADYEKHKVYACEVTHQGLSSPVTKSFNRGEC
heavy: not shown
notes: MMP-9 digest of m27 (K33); the sample also holds the released IL-2Rα, IL-2 and IL-2Rβ; also called n830 after cleavage; not shown: remnant of CM1 and linker after MMP-9 cleavage
B2: Construct No 690 after cleavage by MMP-9 (antibody)
light: DIQMTQSPSSLSASVGDRVTITCNVDQVIANWLNWYQQKPGKAPKLLIYAASSLQSGVPSRFSGSGSGTDFTLTISSLQPEDFATYYCQQMHPRAPKQFGQGTKVEIKRTVAAPSVFIFPPSDEQLKSGTASVVCLLNNFYPREAKVQWKVDNALQSGNSQESVTEQDSKDSTYSLSSTLTLSKADYEKHKVYACEVTHQGLSSPVTKSFNRGEC
heavy: not shown
notes: MMP-9 digest of m24; the sample also holds the released IL-2Rα and IL-2; also called n690 after cleavage; not shown: remnant of CM1 and linker after MMP-9 cleavage
B3: Construct No 41 after cleavage by MMP-9 (antibody)
light: B2 light
heavy: not shown
notes: MMP-9 digest of m8; the sample also holds the released IL-2 and IL-2Rα; also called n41 after cleavage; not shown: remnant of CM1 and linker after MMP-9 cleavage
B4: Construct No 676 after cleavage by MMP-9 (antibody)
light: B2 light
heavy: not shown
notes: MMP-9 digest of m23; the sample also holds the released IL-2Rα-(GGGGS)2-IL-2 fusion (no cleavable linker between the two) and IL-2Rβ; also called n676 after cleavage; not shown: remnant of CM1 and linker after MMP-9 cleavage
B5: Construct No 651 after cleavage by MMP-9 (antibody)
light: B2 light
heavy: not shown
notes: MMP-9 digest of m22; the sample also holds the released IL-2Rα, IL-2 and IL-2Rβ; also called n651 after cleavage; not shown: remnant of CM1 and linker after MMP-9 cleavage
B6: Construct No 530 after cleavage by MMP-9 (antibody)
light: B2 light
heavy: not shown
notes: MMP-9 digest of m18; the sample also holds the released IL-2, IL-2Rα and IL-2Rβ; also called n530 after cleavage; not shown: remnant of CM1 and linker after MMP-9 cleavage
B7: Construct No 490 after cleavage by MMP-9 (antibody)
light: B2 light
heavy: not shown
notes: MMP-9 digest of m20; the sample also holds the released IL-2, IL-2Rα (to 185) and IL-2Rβ; also called n490 after cleavage; not shown: remnant of CM1 and linker after MMP-9 cleavage
B8: Construct No 790 after cleavage by MMP-9 (antibody)
light: B2 light
heavy: not shown
notes: MMP-9 digest of m30; the sample also holds the released IL-2Rα, IL-2 D20T and IL-2Rβ; also called n790 after cleavage; not shown: remnant of CM1 and linker after MMP-9 cleavage
B9: Construct No 545 after cleavage by MMP-9 (antibody)
light: B2 light
heavy: not shown
notes: MMP-9 digest of m19; the sample also holds the released IL-2, IL-2Rα and IL-2Rβ; also called n545 after cleavage; not shown: remnant of CM1 and linker after MMP-9 cleavage
B10: Construct No 1030 after cleavage by MMP-9 (antibody)
light: B2 light
heavy: not shown
notes: MMP-9 digest of m37; the sample also holds the released IL-2 Q126T and IL-2Rα; also called n1030 after cleavage; not shown: remnant of CM1 and linker after MMP-9 cleavage
B11: Construct No 880 after cleavage by MMP-9 (antibody)
light: B2 light
heavy: not shown
notes: MMP-9 digest of m34; the sample also holds the released IL-2Rγ-(GGGGS)2-IL-2 fusion (no cleavable linker between the two) and IL-2Rα; also called n880 after cleavage; not shown: remnant of CM1 and linker after MMP-9 cleavage
B12: Construct No 2 after cleavage by MMP-9 (antibody)
light: B2 light
heavy: not shown
notes: MMP-9 digest of m3; the sample also holds the released IL-2; also called n2 after cleavage; not shown: remnant of CM1 and linker after MMP-9 cleavage
B13: Construct No 780 after cleavage by MMP-9 (antibody)
light: B2 light
heavy: not shown
notes: MMP-9 digest of m29; the sample also holds the released IL-2Rα, IL-2 F42A and IL-2Rβ; also called n780 after cleavage; not shown: remnant of CM1 and linker after MMP-9 cleavage
B14: Construct No 1051 after cleavage by MMP-9 (antibody)
light: B2 light
heavy: not shown
notes: MMP-9 digest of m36; the sample also holds the released IL-2Rα-(GGGGS)2-IL-2 fusion (no cleavable linker between the two); also called n1051 after cleavage; not shown: remnant of CM1 and linker after MMP-9 cleavage
B15: Construct No 870 after cleavage by MMP-9 (antibody)
light: B2 light
heavy: not shown
notes: MMP-9 digest of m33; the sample also holds the released IL-2Rγ, IL-2 and IL-2Rα; also called n870 after cleavage; not shown: remnant of CM1 and linker after MMP-9 cleavage
B16: Construct No 281 after cleavage by MMP-9 (antibody)
light: B2 light
heavy: not shown
notes: MMP-9 digest of m13; the sample also holds the released IL-2; also called n281 after cleavage; not shown: remnant of CM1 and linker after MMP-9 cleavage
B17: Construct No 291 after cleavage by MMP-9 (antibody)
chain 1: B2 light
chain 2: not shown
B18: Construct No 500 after cleavage by MMP-9 (antibody)
light: B2 light
heavy: not shown
notes: MMP-9 digest of m21; the sample also holds the released IL-2, IL-2Rβ and IL-2Rα; also called n500 after cleavage; not shown: remnant of CM1 and linker after MMP-9 cleavage
B19: Construct No 770 after cleavage by MMP-9 (antibody)
light: B2 light
heavy: not shown
notes: MMP-9 digest of m28; the sample also holds the released IL-2Rα, IL-2 C125S and IL-2Rβ; also called n770 after cleavage; not shown: remnant of CM1 and linker after MMP-9 cleavage
B20: Construct No 800 after cleavage by MMP-9 (antibody)
light: B2 light
heavy: not shown
notes: MMP-9 digest of m31; the sample also holds the released IL-2Rα, IL-2 Q126T and IL-2Rβ; also called n800 after cleavage; not shown: remnant of CM1 and linker after MMP-9 cleavage
B21: Construct No 471 after cleavage by MMP-9 (antibody)
light: B2 light
heavy: not shown
notes: MMP-9 digest of m17; the sample also holds the released IL-2, IL-2Rα and IL-2Rβ; also called n471 after cleavage; not shown: remnant of CM1 and linker after MMP-9 cleavage
B22: Construct No 1021 after cleavage by MMP-9 (antibody)
light: B2 light
heavy: not shown
notes: MMP-9 digest of m35; the sample also holds the released IL-2Rα and IL-2; also called n1021 after cleavage; not shown: remnant of CM1 and linker after MMP-9 cleavage
B23: Construct No 450 after cleavage by MMP-9 (antibody)
light: B2 light
heavy: not shown
notes: MMP-9 digest of m16; the sample also holds the released IL-2, IL-2Rα and IL-2Rβ; also called n450 after cleavage; not shown: remnant of CM1 and linker after MMP-9 cleavage

Biological target: T1, high affinity trimeric IL-2R (IL-2Rα, …)
Assay: cell-based or functional assay

EC50 after cleavage IL-2, HEK Blue IL-2 αβγ reporter assay | Binder
0.01 nM | B1
0.07 nM | B2
0.02 nM | B3
0.04 nM | B4
0.02 nM | B5
0.01 nM | B6
0.01 nM | B7
0.04 nM | B8
0.01 nM | B9
0.23 nM | B10
0.04 nM | B11
0.11 nM | B12
0.02 nM | B13
0.03 nM | B14
0.01 nM | B15
0.01 nM | B16
0.01 nM | B17
0.02 nM | B18
0.02 nM | B19
0.48 nM | B20
0.01 nM | B21
0.01 nM | B22
0.01 nM | B23

Biological target: T2, low-moderate affinity dimeric IL-2R …
Assay: cell-based or functional assay

EC50 after cleavage IL-2, HEK Blue IL-2 βγ reporter assay | Binder
0.01 nM | B1
0.03 nM | B2
0.01 nM | B3
0.03 nM | B4
0.01 nM | B5
0.07 nM | B8
0.02 nM | B11
0.09 nM | B12
0.01 nM | B13
0.03 nM | B15
0.01 nM | B19
1.14 nM | B20

Biological target: T3, CD47 at the surface of Peak cells (human, UniProt Q08722 19-323)
T3 construct: whole, on cells; also called cell surface CD47
Assay: flow cytometry, Peak cells, after MMP-9 treatment
Protocol: Binding activity of antibody-cytokine/receptor fusions before and after cleavage was also evaluated by flow cytometry. Peak cells derived from HEK 293 which are human cells expressing CD47 were used to evaluate masking efficacy and binding recovery to CD47 by flow cytometry. Peak cells were diluted in cold FACS buffer (PBS, 2% BSA) to 1.2×10⁶ cells/mL. 3×10⁵ cells/well were added in a 96 well V-bottom plate. The plate was then centrifugated for 5 min at 1300 rpm, 4° C. Supernatants were removed and cells were washed twice using FACS buffer. A serial dilution of antibody-cytokine/receptor fusions previously digested with MMP-9 or not digested as described above was prepared in FACS buffer. An irrelevant antibody was included. Then, 150 μL of each diluted antibody were added in corresponding well and incubated for 30 min at 4° C. Cells were washed twice with FACS buffer and 100 μL of a mouse anti human Fc-PE conjugated secondary antibody were added and the plate was incubated for 20 min at 4° C. Cells were then washed twice with FACS buffer. Finally, 150 μL of SYTOX blue dead cell stain (ThermoFisher) diluted to 1/5000 in FACS buffer were added before detection by flow cytometry with Cytoflex (Beckman Coulter). Acquisition was performed with 10000 events for each well. Data were analyzed by FlowJo software.

EC50 | Binder
0.4 nM | B2
0.2 nM | B3
1 nM | B4
0.7 nM | B5
0.4 nM | B6
0.5 nM | B7
1.6 nM | B8
0.6 nM | B9
0.8 nM | B10
2.6 nM | B11
0.4 nM | B12
1 nM | B13
1.7 nM | B14
1.3 nM | B15
0.9 nM | B16
0.4 nM | B17
0.8 nM | B18
0.5 nM | B19
1.5 nM | B20
0.3 nM | B21
1.3 nM | B22
0.4 nM | B23

Biological target: T4, His-tagged human CD47 (human, UniProt Q08722 19-139, limits assumed)
T4 construct: loaded on HIS1K biosensors at 2.5 µg/mL; also called target antigen; not shown: His tag
Assay: BLI, His-CD47 on HIS1K sensor, after MMP-9 treatment
Protocol: The capacity of the masking domains to inhibit binding activity of the antibody was evaluated by Bio-Layer Interferometry (BLI). […] Binding experiments were performed to evaluate the masking efficiency and the binding recovery after cleavage of the masking domains. BLI was performed on an Octet RED96 system (Sartorius). His-tagged human CD47 was diluted at 2.5 μg/mL in Kinetic Buffer (KB) (Sartorius) and loaded on HIS1K biosensors (anti-His tag antibody biosensors, Sartorius) for 300 seconds. Loaded biosensors were dipped into antibodies diluted at 15 μg/mL in KB for 300 seconds to monitor association. Then, biosensors were transferred in KB for dissociation for 60 seconds. Binding profiles were then analyzed with ForteBio Data Analysis software.

Binding after cleavage (BLI) | Binder
1.7 nm | B1
1.7 nm | B3
1.5 nm | B4
1.6 nm | B5
1.4 nm | B8
1.3 nm | B10
1.1 nm | B11
1.7 nm | B13
1.2 nm | B14
1.3 nm | B15
1.7 nm | B19
1.5 nm | B20
1.3 nm | B22
